Results reported in paper PMC9482650, “Quantitative fragmentomics allow affinity mapping of interactomes” (Nature Communications, 2022).

T1: DFNB31_1, Q9P202
T1 sequence (Q9P202 135-233, limits assumed, looked up): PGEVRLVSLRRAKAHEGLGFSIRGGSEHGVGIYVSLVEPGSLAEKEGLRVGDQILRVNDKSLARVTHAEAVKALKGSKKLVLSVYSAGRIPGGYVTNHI

T2: LIN7B, Q9HAP6
T2 sequence (Q9HAP6 88-185, limits assumed, looked up): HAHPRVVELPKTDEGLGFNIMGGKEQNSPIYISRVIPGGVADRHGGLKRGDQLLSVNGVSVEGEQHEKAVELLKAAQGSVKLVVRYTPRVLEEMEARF


molecular target: T1, DFNB31_1, Q9P202; test: holdup assay; design: key: below the threshold = too weak to quantify, mostly under pKd 3.1 to 4; details: plain residues with an end cap or a label only (N-terminal biotin on a linker: ahx)

| Binder | pKd |
| --- | --- |
| HTHSYIETHV [CNKSR2, Q8WXI2] | 4.23 |

same assay, conditions: plain residues with an end cap or a label only (N-terminal biotin on a linker: gsgsgs; C-terminal amide)

| Binder | pKd |
| --- | --- |
| TLSLTDSSVDGIPPYR [AXIN1_int, O15169] | below the threshold |

same assay, conditions: plain residues with an end cap or a label only (N-terminal biotin on a linker: ttds)

| Binder | pKd |
| --- | --- |
| IYVPEAQTRL [DLGAP4, Q9Y2H0] | 3.96 |
| IDNDTESTAL [ARHGAP17, Q68EM7] | 3.84 |
| TVASEKESVM [SLC1A5, Q15758] | 3.65 |
| GQDSREETQL [KCNT2, Q6UVM3] | 3.82 |
| ERKLSSESQV [LRP4, O75096] | below the threshold |
| VLRLQSETSV [VANGL1, Q8TAA9] | 4.03 |

molecular target: T2, LIN7B, Q9HAP6; test: holdup assay; design: key: below the threshold = too weak to quantify, mostly under pKd 3.1 to 4; details: plain residues with an end cap or a label only (N-terminal biotin on a linker: ahx)

| Binder | pKd |
| --- | --- |
| HTHSYIETHV [CNKSR2, Q8WXI2] | below the threshold |

same assay, conditions: plain residues with an end cap or a label only (N-terminal biotin on a linker: gsgsgs; C-terminal amide)

| Binder | pKd |
| --- | --- |
| TLSLTDSSVDGIPPYR [AXIN1_int, O15169] | 3.72 |

same assay, conditions: plain residues with an end cap or a label only (N-terminal biotin on a linker: ttds)

| Binder | pKd |
| --- | --- |
| IYVPEAQTRL [DLGAP4, Q9Y2H0] | below the threshold |
| IDNDTESTAL [ARHGAP17, Q68EM7] | below the threshold |
| TVASEKESVM [SLC1A5, Q15758] | below the threshold |
| GQDSREETQL [KCNT2, Q6UVM3] | 3.66 |
| ERKLSSESQV [LRP4, O75096] | below the threshold |
| VLRLQSETSV [VANGL1, Q8TAA9] | 3.67 |
